# Experimental data: the Human Domainome abundance scans (Beltran et al. 2025)
# ± gives the uncertainty stated by the source.
# Assay: abundance fitness (aPCA) (normalised: wild type 0, dead -1); higher = more abundant; growth selection in yeast, the domain comes from the species named
# Conditions: Homo sapiens
row,Substance,abundance fitness
1,"Lipoamide acyltransferase component of branched-chain alpha-keto acid dehydrogenase complex, mitochondrial E203L, P11182",-0.176 ± 0.049
2,"Lipoamide acyltransferase component of branched-chain alpha-keto acid dehydrogenase complex, mitochondrial R199K, P11182",-0.033 ± 0.051
3,"Lipoamide acyltransferase component of branched-chain alpha-keto acid dehydrogenase complex, mitochondrial V191A, P11182",-0.52 ± 0.058
4,"Lipoamide acyltransferase component of branched-chain alpha-keto acid dehydrogenase complex, mitochondrial R178W, P11182",-0.27 ± 0.053
5,"Lipoamide acyltransferase component of branched-chain alpha-keto acid dehydrogenase complex, mitochondrial L201Q, P11182",-0.11 ± 0.049
6,"Lipoamide acyltransferase component of branched-chain alpha-keto acid dehydrogenase complex, mitochondrial L209D, P11182",-0.203 ± 0.045
7,"Lipoamide acyltransferase component of branched-chain alpha-keto acid dehydrogenase complex, mitochondrial K211A, P11182",0.066 ± 0.043
8,"Lipoamide acyltransferase component of branched-chain alpha-keto acid dehydrogenase complex, mitochondrial K202I, P11182",-0.017 ± 0.17
9,"Lipoamide acyltransferase component of branched-chain alpha-keto acid dehydrogenase complex, mitochondrial V192N, P11182",-0.073 ± 0.062
10,"Lipoamide acyltransferase component of branched-chain alpha-keto acid dehydrogenase complex, mitochondrial Q212G, P11182",0.023 ± 0.034
11,"Lipoamide acyltransferase component of branched-chain alpha-keto acid dehydrogenase complex, mitochondrial D197Q, P11182",-0.183 ± 0.044
12,"Lipoamide acyltransferase component of branched-chain alpha-keto acid dehydrogenase complex, mitochondrial T174G, P11182",-0.39 ± 0.038
13,"Lipoamide acyltransferase component of branched-chain alpha-keto acid dehydrogenase complex, mitochondrial A173S, P11182",-0.186 ± 0.046
14,"Lipoamide acyltransferase component of branched-chain alpha-keto acid dehydrogenase complex, mitochondrial Q212M, P11182",-0.108 ± 0.049
15,"Lipoamide acyltransferase component of branched-chain alpha-keto acid dehydrogenase complex, mitochondrial I186S, P11182",-0.594 ± 0.064
16,"Lipoamide acyltransferase component of branched-chain alpha-keto acid dehydrogenase complex, mitochondrial D204P, P11182",-0.455 ± 0.06
17,"Lipoamide acyltransferase component of branched-chain alpha-keto acid dehydrogenase complex, mitochondrial E210K, P11182",0.034 ± 0.072
18,"Lipoamide acyltransferase component of branched-chain alpha-keto acid dehydrogenase complex, mitochondrial I186R, P11182",-0.722 ± 0.049
19,"Lipoamide acyltransferase component of branched-chain alpha-keto acid dehydrogenase complex, mitochondrial G214A, P11182",0.014 ± 0.054
20,"Lipoamide acyltransferase component of branched-chain alpha-keto acid dehydrogenase complex, mitochondrial L209N, P11182",-0.138 ± 0.073
21,"Lipoamide acyltransferase component of branched-chain alpha-keto acid dehydrogenase complex, mitochondrial S189R, P11182",-0.09 ± 0.039
22,"Lipoamide acyltransferase component of branched-chain alpha-keto acid dehydrogenase complex, mitochondrial M182T, P11182",-0.173 ± 0.075
23,"Lipoamide acyltransferase component of branched-chain alpha-keto acid dehydrogenase complex, mitochondrial P175M, P11182",-0.051 ± 0.081
24,"Lipoamide acyltransferase component of branched-chain alpha-keto acid dehydrogenase complex, mitochondrial A173D, P11182",-0.296 ± 0.067
25,"Lipoamide acyltransferase component of branched-chain alpha-keto acid dehydrogenase complex, mitochondrial L172W, P11182",-0.206 ± 0.061

row,Substance,abundance fitness
1,"Lipoamide acyltransferase component of branched-chain alpha-keto acid dehydrogenase complex, mitochondrial I205S, P11182",-0.332 ± 0.05
2,"Lipoamide acyltransferase component of branched-chain alpha-keto acid dehydrogenase complex, mitochondrial K202E, P11182",0.069 ± 0.052
3,"Lipoamide acyltransferase component of branched-chain alpha-keto acid dehydrogenase complex, mitochondrial T174N, P11182",-0.064 ± 0.13
4,"Nanos homolog 2 K67R, P60321",-0.197 ± 0.05
5,"Lipoamide acyltransferase component of branched-chain alpha-keto acid dehydrogenase complex, mitochondrial K202G, P11182",-0.135 ± 0.038
6,"Lipoamide acyltransferase component of branched-chain alpha-keto acid dehydrogenase complex, mitochondrial A173T, P11182",-0.05 ± 0.042
7,"Lipoamide acyltransferase component of branched-chain alpha-keto acid dehydrogenase complex, mitochondrial L172C, P11182",-0.243 ± 0.079
8,"Lipoamide acyltransferase component of branched-chain alpha-keto acid dehydrogenase complex, mitochondrial L188G, P11182",-0.544 ± 0.036
9,"Lipoamide acyltransferase component of branched-chain alpha-keto acid dehydrogenase complex, mitochondrial K187Q, P11182",-0.06 ± 0.045
10,"Lipoamide acyltransferase component of branched-chain alpha-keto acid dehydrogenase complex, mitochondrial L209G, P11182",-0.081 ± 0.034
11,"Lipoamide acyltransferase component of branched-chain alpha-keto acid dehydrogenase complex, mitochondrial E190H, P11182",-0.086 ± 0.072
12,"Lipoamide acyltransferase component of branched-chain alpha-keto acid dehydrogenase complex, mitochondrial L201H, P11182",-0.32 ± 0.07
13,"Lipoamide acyltransferase component of branched-chain alpha-keto acid dehydrogenase complex, mitochondrial N185I, P11182",-0.83 ± 0.09
14,"Lipoamide acyltransferase component of branched-chain alpha-keto acid dehydrogenase complex, mitochondrial R178N, P11182",-0.241 ± 0.071
15,"Lipoamide acyltransferase component of branched-chain alpha-keto acid dehydrogenase complex, mitochondrial R199G, P11182",-0.204 ± 0.036
16,"Lipoamide acyltransferase component of branched-chain alpha-keto acid dehydrogenase complex, mitochondrial I186E, P11182",-0.543 ± 0.065
17,"Lipoamide acyltransferase component of branched-chain alpha-keto acid dehydrogenase complex, mitochondrial E203V, P11182",-0.08 ± 0.042
18,"Lipoamide acyltransferase component of branched-chain alpha-keto acid dehydrogenase complex, mitochondrial I205K, P11182",-0.302 ± 0.052
19,"Lipoamide acyltransferase component of branched-chain alpha-keto acid dehydrogenase complex, mitochondrial K211L, P11182",-0.115 ± 0.043
20,"Lipoamide acyltransferase component of branched-chain alpha-keto acid dehydrogenase complex, mitochondrial A176Q, P11182",0.017 ± 0.058
21,"Lipoamide acyltransferase component of branched-chain alpha-keto acid dehydrogenase complex, mitochondrial P175R, P11182",-0.16 ± 0.041
22,"Lipoamide acyltransferase component of branched-chain alpha-keto acid dehydrogenase complex, mitochondrial K211N, P11182",-0.058 ± 0.092
23,"Lipoamide acyltransferase component of branched-chain alpha-keto acid dehydrogenase complex, mitochondrial I205H, P11182",-0.408 ± 0.064
24,"Lipoamide acyltransferase component of branched-chain alpha-keto acid dehydrogenase complex, mitochondrial K202V, P11182",-0.105 ± 0.044
